According to patent EP4674954A1:

What was measured:
[1] = molecular target: mbIL-7-1 (CD52 signal peptide-IL-7-linker 1-BCMA extracellular domain-CD52); assay: flow cytometry, share of stained cells; TIL sample T001-1 electroporated with mbIL-7-1
[2] = molecular target: mbIL-7-2 (CD52 signal peptide-IL-7-linker 2-BCMA extracellular domain-CD52); assay: flow cytometry, share of stained cells; TIL sample T002-2 electroporated with mbIL-7-2
[3] = molecular target: mbIL-7-2 (CD52 signal peptide-IL-7-linker 2-BCMA extracellular domain-CD52); assay: flow cytometry, share of stained cells; TIL sample T003-2 electroporated with mbIL-7-2
[4] = molecular target: mbIL-7-7 (CD52 signal peptide-IL-7-linker 2-BCMA extracellular domain-CD8 transmembrane domain); assay: flow cytometry, share of stained cells; TIL sample T003-7 electroporated with mbIL-7-7
[5] = molecular target: mbIL-7-1 (CD52 signal peptide-IL-7-linker 1-BCMA extracellular domain-CD52); assay: flow cytometry, share of stained cells; TIL sample T004-1 electroporated with mbIL-7-1
[6] = molecular target: mbIL-7-3 (CD52 signal peptide-IL-7-linker 4-point-mutated BCMA extracellular domain-CD52); assay: flow cytometry, share of stained cells; TIL sample T005-3 electroporated with mbIL-7-3
[7] = molecular target: mbIL-7-5 (CD52 signal peptide-IL-7-point mutation BCMA extracellular domain-linker 4-CD52); assay: flow cytometry, share of stained cells; TIL sample T006-5 electroporated with mbIL-7-5
[8] = molecular target: mbIL-7-6 (CD52 signal peptide-IL-7-linker 3-BCMA extracellular domain-CD52); assay: flow cytometry, share of stained cells; TIL sample T007-6 electroporated with mbIL-7-6
[9] = molecular target: mbIL-7-8 (IL-7 signal peptide-IL-7-linker 2-truncated BCMA extracellular domain-CD52); assay: flow cytometry, share of stained cells; TIL sample T008-8 electroporated with mbIL-7-8
[10] = molecular target: mbIL-7-3 (CD52 signal peptide-IL-7-linker 4-point-mutated BCMA extracellular domain-CD52); assay: flow cytometry, share of stained cells; TIL sample T009-3 electroporated with mbIL-7-3
[11] = molecular target: mbIL-7-4 (CD52 signal peptide-IL-7-linker 5-truncated point-mutated BCMA extracellular domain-CD8 extracellular hinge region-CD52); assay: flow cytometry, share of stained cells; TIL sample T010-4 electroporated with mbIL-7-4
[12] = molecular target: mbIL-7-9 (CD52 signal peptide-IL-7-linker 5-truncated point-mutated BCMA extracellular domain-CD52); assay: flow cytometry, share of stained cells; TIL sample T011-9 electroporated with mbIL-7-9
[13] = molecular target: mbIL-7-9 (CD52 signal peptide-IL-7-linker 5-truncated point-mutated BCMA extracellular domain-CD52); assay: flow cytometry, share of stained cells; TIL sample T012-9 electroporated with mbIL-7-9
[14] = molecular target: mbIL-7-9 (CD52 signal peptide-IL-7-linker 5-truncated point-mutated BCMA extracellular domain-CD52); assay: flow cytometry, share of stained cells; TIL sample T013-9 electroporated with mbIL-7-9
[15] = molecular target: mbIL-7-9 (CD52 signal peptide-IL-7-linker 5-truncated point-mutated BCMA extracellular domain-CD52); assay: flow cytometry, share of stained cells; TIL sample T014-9 electroporated with mbIL-7-9

Chain of mbIL-7-9 (CD52 signal peptide-IL-7-linker 5-truncated point-mutated BCMA extracellular domain-CD52) (chain, as listed by the source limits assumed, change not shown): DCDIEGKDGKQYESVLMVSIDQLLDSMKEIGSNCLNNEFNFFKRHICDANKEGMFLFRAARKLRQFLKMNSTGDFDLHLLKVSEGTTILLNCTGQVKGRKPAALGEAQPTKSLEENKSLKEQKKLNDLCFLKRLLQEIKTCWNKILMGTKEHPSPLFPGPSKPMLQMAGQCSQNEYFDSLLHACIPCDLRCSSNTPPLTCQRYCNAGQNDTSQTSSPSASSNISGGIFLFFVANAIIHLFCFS
Chain of mbIL-7-3 (CD52 signal peptide-IL-7-linker 4-point-mutated BCMA extracellular domain-CD52) (chain, as listed by the source limits assumed, change not shown): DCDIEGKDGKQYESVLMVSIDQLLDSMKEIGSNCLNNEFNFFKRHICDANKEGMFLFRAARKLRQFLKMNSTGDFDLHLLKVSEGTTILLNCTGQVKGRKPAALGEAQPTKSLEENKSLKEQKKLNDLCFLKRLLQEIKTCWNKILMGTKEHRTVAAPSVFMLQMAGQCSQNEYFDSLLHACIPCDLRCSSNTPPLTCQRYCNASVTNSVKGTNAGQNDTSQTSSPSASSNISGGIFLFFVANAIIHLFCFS
Chain of mbIL-7-1 (CD52 signal peptide-IL-7-linker 1-BCMA extracellular domain-CD52) (chain, as listed by the source limits assumed): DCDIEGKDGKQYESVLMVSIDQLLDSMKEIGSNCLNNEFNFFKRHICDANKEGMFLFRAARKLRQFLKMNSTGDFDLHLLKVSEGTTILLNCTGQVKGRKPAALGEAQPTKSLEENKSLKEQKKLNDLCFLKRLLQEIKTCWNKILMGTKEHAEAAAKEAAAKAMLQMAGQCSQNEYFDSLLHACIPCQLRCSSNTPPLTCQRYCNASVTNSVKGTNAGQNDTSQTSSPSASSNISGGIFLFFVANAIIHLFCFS
Chain of mbIL-7-2 (CD52 signal peptide-IL-7-linker 2-BCMA extracellular domain-CD52) (chain, as listed by the source limits assumed): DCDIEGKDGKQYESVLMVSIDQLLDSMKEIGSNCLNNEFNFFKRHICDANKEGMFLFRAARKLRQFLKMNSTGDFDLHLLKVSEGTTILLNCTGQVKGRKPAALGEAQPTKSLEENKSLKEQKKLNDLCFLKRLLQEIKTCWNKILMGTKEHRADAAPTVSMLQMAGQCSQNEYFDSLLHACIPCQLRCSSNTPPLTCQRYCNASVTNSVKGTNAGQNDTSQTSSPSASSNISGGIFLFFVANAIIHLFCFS
Chain of mbIL-7-8 (IL-7 signal peptide-IL-7-linker 2-truncated BCMA extracellular domain-CD52) (chain, as listed by the source limits assumed): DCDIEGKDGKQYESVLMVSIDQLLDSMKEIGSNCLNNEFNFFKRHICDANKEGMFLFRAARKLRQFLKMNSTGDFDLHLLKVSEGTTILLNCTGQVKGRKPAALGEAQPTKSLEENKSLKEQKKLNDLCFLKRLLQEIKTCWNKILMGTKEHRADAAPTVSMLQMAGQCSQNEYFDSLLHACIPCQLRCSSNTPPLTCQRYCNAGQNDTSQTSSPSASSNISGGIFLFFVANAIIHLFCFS
Chain of mbIL-7-5 (CD52 signal peptide-IL-7-point mutation BCMA extracellular domain-linker 4-CD52) (chain, as listed by the source limits assumed, change not shown): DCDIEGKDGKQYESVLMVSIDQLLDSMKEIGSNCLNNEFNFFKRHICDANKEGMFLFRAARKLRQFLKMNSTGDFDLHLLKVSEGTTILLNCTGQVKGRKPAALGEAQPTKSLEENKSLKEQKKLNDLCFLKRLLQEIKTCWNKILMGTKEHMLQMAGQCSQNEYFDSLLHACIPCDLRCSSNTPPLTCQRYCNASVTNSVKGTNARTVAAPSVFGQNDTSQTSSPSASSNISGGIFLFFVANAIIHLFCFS
Chain of mbIL-7-7 (CD52 signal peptide-IL-7-linker 2-BCMA extracellular domain-CD8 transmembrane domain) (chain, as listed by the source limits assumed): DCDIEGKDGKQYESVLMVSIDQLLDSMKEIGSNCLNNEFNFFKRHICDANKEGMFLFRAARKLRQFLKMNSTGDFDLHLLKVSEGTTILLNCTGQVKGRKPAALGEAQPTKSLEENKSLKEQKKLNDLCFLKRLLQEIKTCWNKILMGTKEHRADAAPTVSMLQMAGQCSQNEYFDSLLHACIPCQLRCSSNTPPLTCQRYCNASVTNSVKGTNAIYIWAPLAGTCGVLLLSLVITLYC
Chain of mbIL-7-4 (CD52 signal peptide-IL-7-linker 5-truncated point-mutated BCMA extracellular domain-CD8 extracellular hinge region-CD52) (chain, as listed by the source limits assumed, change not shown): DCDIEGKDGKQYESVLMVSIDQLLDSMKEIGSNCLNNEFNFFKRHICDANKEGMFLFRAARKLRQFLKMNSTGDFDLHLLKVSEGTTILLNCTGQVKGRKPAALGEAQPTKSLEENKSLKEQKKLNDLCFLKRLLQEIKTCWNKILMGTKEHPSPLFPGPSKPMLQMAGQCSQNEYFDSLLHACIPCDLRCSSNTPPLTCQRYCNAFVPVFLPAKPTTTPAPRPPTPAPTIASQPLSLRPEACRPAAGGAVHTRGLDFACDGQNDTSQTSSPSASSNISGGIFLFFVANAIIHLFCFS
Chain of mbIL-7-6 (CD52 signal peptide-IL-7-linker 3-BCMA extracellular domain-CD52) (chain, as listed by the source limits assumed): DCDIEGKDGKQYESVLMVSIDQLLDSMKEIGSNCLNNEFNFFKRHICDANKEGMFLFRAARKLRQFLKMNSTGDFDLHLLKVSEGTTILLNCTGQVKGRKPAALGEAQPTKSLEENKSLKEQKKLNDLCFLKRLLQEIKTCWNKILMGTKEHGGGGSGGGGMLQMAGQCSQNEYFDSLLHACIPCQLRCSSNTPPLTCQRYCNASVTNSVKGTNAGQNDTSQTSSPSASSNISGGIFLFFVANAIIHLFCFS

- Positive rate (%) [1]: 49.3%
- Positive rate (%) [2]: 45.4%
- Positive rate (%) [3]: 51.2%
- Positive rate (%) [4]: 15.1%
- Positive rate (%) [5]: 40.2%
- Positive rate (%) [6]: 54.1%
- Positive rate (%) [7]: 44.7%
- Positive rate (%) [8]: 12.3%
- Positive rate (%) [9]: 42.5%
- Positive rate (%) [10]: 52%
- Positive rate (%) [11]: 43.8%
- Positive rate (%) [12]: 47.6%
- Positive rate (%) [13]: 50.1%
- Positive rate (%) [14]: 45.9%
- Positive rate (%) [15]: 41.1%
Substance: BCMA flow antibody (purchased from Biolegend, catalog number 357504)
